Assay results from US20140221620A1 (PERSEUS PROTEOMICS, published 2014).

Tests used:
Experiment in all cases: Western blot, E. coli lysate, reducing gel
[1] = biological target: T1, CDH3 protein Fragment 4 (positions 349 to 550 of SEQ ID NO: 38) (human, UniProt P22223 349-550)
T1 construct: Expressed in E. coli Rosetta 2; the lysate was run on a reducing gel and blotted; not shown: N-terminal fusion part supplied by the vector pCold TF (His tag, trigger factor, linker to the KpnI site)
Protocol: (§1) The above-described Escherichia coli lysate, in which each of the above-mentioned CDH3 protein fragments had been expressed, was charged to 5%-20% gradient gel (Bio-Rad) under reductive conditions, followed by performing electrophoresis. Thereafter, using a blotting device (Bio-Rad), the resultant was transferred on Immobilon P membrane (Millipore). The transfer membrane was lightly washed with TBS-T (0.05% Tween 20, TBS), and it was then shaken in […] BSA-containing TBS for 1 hour. […] The obtained mixture was shaken for 1 hour. Thereafter, the reaction product was washed with TBS-T, and a HRP-anti-mouse IgG antibody (GE Healthcare Biosciences) diluted with 10% Block Ace-containing TBS-T was added thereto, followed by shaking the obtained mixture for 1 hour. Subsequently, the reaction product was washed with TBS-T. Using ECL-Plus (GE Healthcare Biosciences), color development was detected with X-ray film RX-u (Fujifilm Corporation) in accordance with the instructions provided by the manufacturer.

[2] = biological target: T2, CDH3 protein Fragment 3 (positions 237 to 461 of SEQ ID NO: 38) (human, UniProt P22223 237-461)
T2 construct: Expressed in E. coli Rosetta 2; the lysate was run on a reducing gel and blotted; not shown: N-terminal fusion part supplied by the vector pCold TF (His tag, trigger factor, linker to the KpnI site)
Protocol: as §1

[3] = biological target: T3, CDH3 protein Fragment 2 (positions 132 to 348 of SEQ ID NO: 38) (human, UniProt P22223 132-348)
T3 construct: Expressed in E. coli Rosetta 2; the lysate was run on a reducing gel and blotted; not shown: N-terminal fusion part supplied by the vector pCold TF (His tag, trigger factor, linker to the KpnI site)
Protocol: as §1

[4] = biological target: T4, CDH3 protein Fragment 5 (positions 462 to 654 of SEQ ID NO: 38) (human, UniProt P22223 462-654)
T4 construct: Expressed in E. coli Rosetta 2; the lysate was run on a reducing gel and blotted; not shown: N-terminal fusion part supplied by the vector pCold TF (His tag, trigger factor, linker to the KpnI site)
Protocol: as §1

Measured: binding result

T1 sequence (P22223 349-550 limits assumed): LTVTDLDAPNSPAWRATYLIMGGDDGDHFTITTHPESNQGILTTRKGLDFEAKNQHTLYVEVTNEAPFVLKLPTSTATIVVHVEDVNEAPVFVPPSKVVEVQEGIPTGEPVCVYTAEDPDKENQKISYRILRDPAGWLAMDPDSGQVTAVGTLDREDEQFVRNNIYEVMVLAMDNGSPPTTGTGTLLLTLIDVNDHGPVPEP
T4 sequence (P22223 462-654 limits assumed): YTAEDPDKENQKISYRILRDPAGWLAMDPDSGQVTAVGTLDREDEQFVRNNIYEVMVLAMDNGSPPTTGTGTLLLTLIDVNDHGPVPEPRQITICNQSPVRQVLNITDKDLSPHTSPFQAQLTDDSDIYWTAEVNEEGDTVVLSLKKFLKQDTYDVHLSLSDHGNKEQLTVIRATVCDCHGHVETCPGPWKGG
T3 sequence (P22223 132-348 limits assumed): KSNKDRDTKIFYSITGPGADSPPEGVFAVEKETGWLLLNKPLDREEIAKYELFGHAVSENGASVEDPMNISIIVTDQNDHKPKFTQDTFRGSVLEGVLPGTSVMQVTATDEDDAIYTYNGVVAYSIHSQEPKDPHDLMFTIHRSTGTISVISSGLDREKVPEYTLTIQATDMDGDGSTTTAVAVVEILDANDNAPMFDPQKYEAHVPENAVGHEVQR
T2 sequence (P22223 237-461 limits assumed): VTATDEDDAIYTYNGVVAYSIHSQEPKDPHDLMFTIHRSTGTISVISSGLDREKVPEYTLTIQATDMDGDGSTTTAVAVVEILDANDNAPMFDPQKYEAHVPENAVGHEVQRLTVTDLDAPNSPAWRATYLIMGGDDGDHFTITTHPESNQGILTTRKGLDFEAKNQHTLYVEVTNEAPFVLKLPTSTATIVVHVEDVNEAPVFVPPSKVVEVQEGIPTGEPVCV

B1: mouse antibody PPAT-057-17 (antibody, V domains shown)
VH: QVKLEESGPVLVAPSQSLSITCTVSGFSLTSYGVHWIRHPPGKGLEWLGVIWAGGNTIYNSALMSRLNISKDNSKSQVFLKMNSLQSDDSAMYYCAKPHYGDYAGFYALDHWGQGTSVTVSS
VL: DVQITQSPSYLAASPGETININCRASKRISKYLAWYQEKPGKTNRLLIYSGSTLQSGIPSRFSGSGSGTDFTLTISSLEPEDFAMYYCQQHNEYPWTFGGGTKLEIK
notes: Mouse monoclonal IgG from a hybridoma; kappa L chain primers were used
no binding: all assays above
